Starred links: 1 amine or outer side, 2 acyl side, 3 side chain; linkers in the order of their positions; H or OH if unused. Non-standard residues stand in square brackets, D forms with d. Groups on a side chain read outwards from the residue. No end group written: not given here. *: point of attachment. Trp(5-Br) = N[C@@H](Cc1c[nH]c2ccc(Br)cc12)C(=O)O; Bip = N[C@@H](Cc1ccc(-c2ccccc2)cc1)C(=O)O; C18 diacid = O=C(O)CCCCCCCCCCCCCCCCC(=O)*; γGlu = O=C(O)[C@H](CCC(=O)[*:2])N[*:1]; αMeF = C[C@](N)(Cc1ccccc1)C(=O)O; AEEA = NCCOCCOCC(=O)O; Aib = CC(C)(N)C(=O)O
Assays:
[1] = molecular target: human GLP-1 receptor (hGLP-1R) (human, UniProt P43220 24-463); experiment: cell-based or functional assay
[2] = molecular target: human glucagon receptor (hGCGR) (human, UniProt P47871 26-477); experiment: cell-based or functional assay
human glucagon receptor (hGCGR), sequence (P47871 26-477): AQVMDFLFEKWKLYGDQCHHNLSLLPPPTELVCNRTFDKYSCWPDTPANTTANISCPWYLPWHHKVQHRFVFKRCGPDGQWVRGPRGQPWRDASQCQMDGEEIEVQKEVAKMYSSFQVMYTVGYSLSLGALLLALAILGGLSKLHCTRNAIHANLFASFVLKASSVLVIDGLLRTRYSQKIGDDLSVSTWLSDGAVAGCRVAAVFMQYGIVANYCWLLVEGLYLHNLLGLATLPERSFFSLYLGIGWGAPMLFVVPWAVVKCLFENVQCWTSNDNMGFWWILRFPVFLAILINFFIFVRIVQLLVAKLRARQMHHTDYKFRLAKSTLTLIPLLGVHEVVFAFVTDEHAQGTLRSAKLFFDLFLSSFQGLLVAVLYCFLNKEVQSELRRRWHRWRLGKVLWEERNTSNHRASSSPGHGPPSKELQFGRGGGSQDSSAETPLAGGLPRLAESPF

Row | hGLP-1R EC50 (pM) [1] [pM] | hGluc-R EC50 (pM) [2] [pM] | Binder
1 | 44.6 | 194 | H[Aib]QGTFTSDVSK[αMeF]LDTK([AEEA-AEEA-γGlu-γGlu-C18 diacid])RAQDFVAWLEA[Aib]G-NH2 (N-terminus assumed; SMILES CC(C)C[C@H](NC(=O)[C@H](Cc1c[nH]c2ccccc12)NC(=O)[C@H](C)NC(=O)[C@@H](NC(=O)[C@H](Cc1ccccc1)NC(=O)[C@H](CC(=O)O)NC(=O)[C@H](CCC(N)=O)NC(=O)[C@H](C)NC(=O)[C@H](CCCNC(=N)N)NC(=O)[C@H](CCCCNC(=O)COCCOCCNC(=O)COCCOCCNC(=O)CC[C@H](NC(=O)CC[C@H](NC(=O)CCCCCCCCCCCCCCCCC(=O)O)C(=O)O)C(=O)O)NC(=O)[C@@H](NC(=O)[C@H](CC(=O)O)NC(=O)[C@H](CC(C)C)NC(=O)[C@](C)(Cc1ccccc1)NC(=O)[C@H](CCCCN)NC(=O)[C@H](CO)NC(=O)[C@@H](NC(=O)[C@H](CC(=O)O)NC(=O)[C@H](CO)NC(=O)[C@@H](NC(=O)[C@H](Cc1ccccc1)NC(=O)[C@@H](NC(=O)CNC(=O)[C@H](CCC(N)=O)NC(=O)C(C)(C)NC(=O)[C@@H](N)Cc1c[nH]cn1)[C@@H](C)O)[C@@H](C)O)C(C)C)[C@@H](C)O)C(C)C)C(=O)N[C@@H](CCC(=O)O)C(=O)N[C@@H](C)C(=O)NC(C)(C)C(=O)NCC(N)=O) [Peptide 431]
2 | 24.4 | 160 | H[Aib]QGTFTSDVSK[αMeF]LDSK([AEEA-AEEA-γGlu-γGlu-C18 diacid])RAQDFVRWLEA[Aib]G-NH2 (N-terminus assumed; SMILES CC(C)C[C@H](NC(=O)[C@H](Cc1c[nH]c2ccccc12)NC(=O)[C@H](CCCNC(=N)N)NC(=O)[C@@H](NC(=O)[C@H](Cc1ccccc1)NC(=O)[C@H](CC(=O)O)NC(=O)[C@H](CCC(N)=O)NC(=O)[C@H](C)NC(=O)[C@H](CCCNC(=N)N)NC(=O)[C@H](CCCCNC(=O)COCCOCCNC(=O)COCCOCCNC(=O)CC[C@H](NC(=O)CC[C@H](NC(=O)CCCCCCCCCCCCCCCCC(=O)O)C(=O)O)C(=O)O)NC(=O)[C@H](CO)NC(=O)[C@H](CC(=O)O)NC(=O)[C@H](CC(C)C)NC(=O)[C@](C)(Cc1ccccc1)NC(=O)[C@H](CCCCN)NC(=O)[C@H](CO)NC(=O)[C@@H](NC(=O)[C@H](CC(=O)O)NC(=O)[C@H](CO)NC(=O)[C@@H](NC(=O)[C@H](Cc1ccccc1)NC(=O)[C@@H](NC(=O)CNC(=O)[C@H](CCC(N)=O)NC(=O)C(C)(C)NC(=O)[C@@H](N)Cc1c[nH]cn1)[C@@H](C)O)[C@@H](C)O)C(C)C)C(C)C)C(=O)N[C@@H](CCC(=O)O)C(=O)N[C@@H](C)C(=O)NC(C)(C)C(=O)NCC(N)=O) [Peptide 430]
3 | 153 | 294 | H[Aib]QGTFTSDVSK[αMeF]LDSK([AEEA-AEEA-γGlu-C18 diacid])RAQDFVR[Trp(5-Br)]LL[Aib]E-OH (N-terminus assumed; SMILES CC(C)C[C@H](NC(=O)[C@H](Cc1c[nH]c2ccc(Br)cc12)NC(=O)[C@H](CCCNC(=N)N)NC(=O)[C@@H](NC(=O)[C@H](Cc1ccccc1)NC(=O)[C@H](CC(=O)O)NC(=O)[C@H](CCC(N)=O)NC(=O)[C@H](C)NC(=O)[C@H](CCCNC(=N)N)NC(=O)[C@H](CCCCNC(=O)COCCOCCNC(=O)COCCOCCNC(=O)CC[C@H](NC(=O)CCCCCCCCCCCCCCCCC(=O)O)C(=O)O)NC(=O)[C@H](CO)NC(=O)[C@H](CC(=O)O)NC(=O)[C@H](CC(C)C)NC(=O)[C@](C)(Cc1ccccc1)NC(=O)[C@H](CCCCN)NC(=O)[C@H](CO)NC(=O)[C@@H](NC(=O)[C@H](CC(=O)O)NC(=O)[C@H](CO)NC(=O)[C@@H](NC(=O)[C@H](Cc1ccccc1)NC(=O)[C@@H](NC(=O)CNC(=O)[C@H](CCC(N)=O)NC(=O)C(C)(C)NC(=O)[C@@H](N)Cc1c[nH]cn1)[C@@H](C)O)[C@@H](C)O)C(C)C)C(C)C)C(=O)N[C@@H](CC(C)C)C(=O)NC(C)(C)C(=O)N[C@@H](CCC(=O)O)C(=O)O) [Peptide 434]
4 | 15 | 144 | H[Aib]QGTFTSDVSK[αMeF]LDSK([AEEA-AEEA-γGlu-C18 diacid])RAQDFVRWLEA[Aib]G-NH2 (N-terminus assumed; SMILES CC(C)C[C@H](NC(=O)[C@H](Cc1c[nH]c2ccccc12)NC(=O)[C@H](CCCNC(=N)N)NC(=O)[C@@H](NC(=O)[C@H](Cc1ccccc1)NC(=O)[C@H](CC(=O)O)NC(=O)[C@H](CCC(N)=O)NC(=O)[C@H](C)NC(=O)[C@H](CCCNC(=N)N)NC(=O)[C@H](CCCCNC(=O)COCCOCCNC(=O)COCCOCCNC(=O)CC[C@H](NC(=O)CCCCCCCCCCCCCCCCC(=O)O)C(=O)O)NC(=O)[C@H](CO)NC(=O)[C@H](CC(=O)O)NC(=O)[C@H](CC(C)C)NC(=O)[C@](C)(Cc1ccccc1)NC(=O)[C@H](CCCCN)NC(=O)[C@H](CO)NC(=O)[C@@H](NC(=O)[C@H](CC(=O)O)NC(=O)[C@H](CO)NC(=O)[C@@H](NC(=O)[C@H](Cc1ccccc1)NC(=O)[C@@H](NC(=O)CNC(=O)[C@H](CCC(N)=O)NC(=O)C(C)(C)NC(=O)[C@@H](N)Cc1c[nH]cn1)[C@@H](C)O)[C@@H](C)O)C(C)C)C(C)C)C(=O)N[C@@H](CCC(=O)O)C(=O)N[C@@H](C)C(=O)NC(C)(C)C(=O)NCC(N)=O) [Peptide 429]
5 | 1380 | 1160 | H[Aib]QGTFTSDVSK[αMeF]LDSK([AEEA-AEEA-γGlu-C18 diacid])RAQDFVR[Bip]LL[Aib]E-OH (N-terminus assumed; SMILES CC(C)C[C@H](NC(=O)[C@H](Cc1ccc(-c2ccccc2)cc1)NC(=O)[C@H](CCCNC(=N)N)NC(=O)[C@@H](NC(=O)[C@H](Cc1ccccc1)NC(=O)[C@H](CC(=O)O)NC(=O)[C@H](CCC(N)=O)NC(=O)[C@H](C)NC(=O)[C@H](CCCNC(=N)N)NC(=O)[C@H](CCCCNC(=O)COCCOCCNC(=O)COCCOCCNC(=O)CC[C@H](NC(=O)CCCCCCCCCCCCCCCCC(=O)O)C(=O)O)NC(=O)[C@H](CO)NC(=O)[C@H](CC(=O)O)NC(=O)[C@H](CC(C)C)NC(=O)[C@](C)(Cc1ccccc1)NC(=O)[C@H](CCCCN)NC(=O)[C@H](CO)NC(=O)[C@@H](NC(=O)[C@H](CC(=O)O)NC(=O)[C@H](CO)NC(=O)[C@@H](NC(=O)[C@H](Cc1ccccc1)NC(=O)[C@@H](NC(=O)CNC(=O)[C@H](CCC(N)=O)NC(=O)C(C)(C)NC(=O)[C@@H](N)Cc1c[nH]cn1)[C@@H](C)O)[C@@H](C)O)C(C)C)C(C)C)C(=O)N[C@@H](CC(C)C)C(=O)NC(C)(C)C(=O)N[C@@H](CCC(=O)O)C(=O)O) [Peptide 432]

More lines, now with the values behind:

Row | Binder | hGLP-1R EC50 (pM) [1] [pM] | hGluc-R EC50 (pM) [2] [pM]
6 | H[Aib]QGTFTSDVSK[αMeF]LDKK([AEEA-AEEA-γGlu-C18 diacid])RAQDFVRWLLR[Aib]K-OH (N-terminus assumed; SMILES CC(C)C[C@H](NC(=O)[C@H](Cc1c[nH]c2ccccc12)NC(=O)[C@H](CCCNC(=N)N)NC(=O)[C@@H](NC(=O)[C@H](Cc1ccccc1)NC(=O)[C@H](CC(=O)O)NC(=O)[C@H](CCC(N)=O)NC(=O)[C@H](C)NC(=O)[C@H](CCCNC(=N)N)NC(=O)[C@H](CCCCNC(=O)COCCOCCNC(=O)COCCOCCNC(=O)CC[C@H](NC(=O)CCCCCCCCCCCCCCCCC(=O)O)C(=O)O)NC(=O)[C@H](CCCCN)NC(=O)[C@H](CC(=O)O)NC(=O)[C@H](CC(C)C)NC(=O)[C@](C)(Cc1ccccc1)NC(=O)[C@H](CCCCN)NC(=O)[C@H](CO)NC(=O)[C@@H](NC(=O)[C@H](CC(=O)O)NC(=O)[C@H](CO)NC(=O)[C@@H](NC(=O)[C@H](Cc1ccccc1)NC(=O)[C@@H](NC(=O)CNC(=O)[C@H](CCC(N)=O)NC(=O)C(C)(C)NC(=O)[C@@H](N)Cc1c[nH]cn1)[C@@H](C)O)[C@@H](C)O)C(C)C)C(C)C)C(=O)N[C@@H](CC(C)C)C(=O)N[C@@H](CCCNC(=N)N)C(=O)NC(C)(C)C(=O)N[C@@H](CCCCN)C(=O)O) [Peptide 426] | 7.3 | 61.2
7 | H[Aib]QGTFTSDVSK[αMeF]LDTK([AEEA-AEEA-γGlu-γGlu-C18 diacid])RARDFVQWLLE[Aib]G (not fully specified (C-terminus)) [Peptide 428] | 33.1 | 10.5
8 | H[Aib]QGTFTSDVSK[αMeF]LDRK([AEEA-AEEA-γGlu-C18 diacid])RAQDFVRWLV[Aib]E-NH2 (N-terminus assumed; SMILES CC(C)C[C@H](NC(=O)[C@H](Cc1c[nH]c2ccccc12)NC(=O)[C@H](CCCNC(=N)N)NC(=O)[C@@H](NC(=O)[C@H](Cc1ccccc1)NC(=O)[C@H](CC(=O)O)NC(=O)[C@H](CCC(N)=O)NC(=O)[C@H](C)NC(=O)[C@H](CCCNC(=N)N)NC(=O)[C@H](CCCCNC(=O)COCCOCCNC(=O)COCCOCCNC(=O)CC[C@H](NC(=O)CCCCCCCCCCCCCCCCC(=O)O)C(=O)O)NC(=O)[C@H](CCCNC(=N)N)NC(=O)[C@H](CC(=O)O)NC(=O)[C@H](CC(C)C)NC(=O)[C@](C)(Cc1ccccc1)NC(=O)[C@H](CCCCN)NC(=O)[C@H](CO)NC(=O)[C@@H](NC(=O)[C@H](CC(=O)O)NC(=O)[C@H](CO)NC(=O)[C@@H](NC(=O)[C@H](Cc1ccccc1)NC(=O)[C@@H](NC(=O)CNC(=O)[C@H](CCC(N)=O)NC(=O)C(C)(C)NC(=O)[C@@H](N)Cc1c[nH]cn1)[C@@H](C)O)[C@@H](C)O)C(C)C)C(C)C)C(=O)N[C@H](C(=O)NC(C)(C)C(=O)N[C@@H](CCC(=O)O)C(N)=O)C(C)C) [Peptide 436] | 7.43 | 68.8
9 | H[Aib]QGTFTSDVSK[αMeF]LDTK([AEEA-AEEA-γGlu-C18 diacid])RARDFVQWLLE[Aib]G (not fully specified (C-terminus)) [Peptide 427] | 12.4 | 47.2

Source: patent US20230357348A1 (AstraZeneca / MedImmune, published 2023)
